Here are results for one molecule from article PMC11096381.

In this experiment the target is serum immunoglobulin M (IgM), endogenous mouse (mouse (endogenous in C57BL/6 mice)). Description: SEC + other: SDS-PAGE with western blot keeping disulfide bonds; peritoneal fluid and serum of healthy WT mice (0 h); 7.5% SDS-PAGE under conditions that prevent disruption of CD5L-IgM disulfide bonds, western blot for CD5L, densitometry of IgM-bound and free bands; WT serum also fractionated on Superose 12 10/300 GL in PBS and fractions blotted for CD5L and IgM. On the technique in general: A western blot detects proteins with antibodies after separation by electrophoresis.

B1: CD5 antigen-like (CD5L), endogenous mouse protein (natural protein)
chain: ESPTKVQLVGGAHRCEGRVEVEHNGQWGTVCDDGWDRRDVAVVCRELNCGAVIQTPRGASYQPPASEQRVLIQGVDCNGTEDTLAQCELNYDVFDCSHEEDAGAQCENPDSDLLFIPEDVRLVDGPGHCQGRVEVLHQSQWSTVCKAGWNLQVSKVVCRQLGCGRALLTYGSCNKNTQGKGPIWMGKMSCSGQEANLRSCLLSRLENNCTHGEDTWMECEDPFELKLVGGDTPCSGRLEVLHKGSWGSVCDDNWGEKEDQVVCKQLGCGKSLHPSPKTRKIYGPGAGRIWLDDVNCSGKEQSLEFCRHRLWGYHDCTHKEDVEVICTDFDV
For B1, the percent of CD5L bound to IgM was above 90%.
